According to paper PMC11282289, “Serial X-ray liquidography: multi-dimensional assay framework for exploring biomolecular structural dynamics with microgram quantities” (Nature Communications, 2024):

Molecular target: the molecule itself
Assay: static small angle X-ray scattering (SAXS); conventional static SAXS, flow cell, no laser (ground state); difference scattering between wild type and monomeric mutant; 25 mM Tris pH 7.5, 100 mM NaCl, 2 mM DTT

B1: Arabidopsis thaliana UV-B resistance 8 (AtUVR8), wild type, residues 12-381 (domain or fragment, UniProt Q9FN03 12-381, looked up)
chain: APPRKVLIISAGASHSVALLSGDIVCSWGRGEDGQLGHGDAEDRPSPTQLSALDGHQIVSVTCGADHTVAYSQSGMEVYSWGWGDFGRLGHGNSSDLFTPLPIKALHGIRIKQIACGDSHCLAVTMEGEVQSWGRNQNGQLGLGDTEDSLVPQKIQAFEGIRIKMVAAGAEHTAAVTEDGDLYGWGWGRYGNLGLGDRTDRLVPERVTSTGGEKMSMVACGWRHTISVSYSGALYTYGWSKYGQLGHGDLEDHLIPHKLEALSNSFISQISGGWRHTMALTSDGKLYGWGWNKFGQVGVGNNLDQCSPVQVRFPDDQKVVQVSCGWRHTLAVTERNNVFAWGRGTNGQLGIGESVDRNFPKIIEALSVDG
notes: UV-B resistance 8 (UVR8), Arabidopsis thaliana, residues 12-381; Homodimer in the dark (ground) state; also called 2M-T-AtUVR8-His; source: E. coli BL21(DE3) GOLD, purified (IMAC, TEV cleavage, Q-Sepharose, MBPTrap flow-through); not shown: MBP-His-tag, N-terminal, cleaved
Question: Does B1 bind?
Answer: binds
